In PMC10880428 (Protein Science : A Publication of the Protein Society, 2024):

Legend:
[1] = target: T1, EtgA residues 18–152 with C-terminal 6xHis-tag (enteropathogenic Escherichia coli); test: MST
T1 chain: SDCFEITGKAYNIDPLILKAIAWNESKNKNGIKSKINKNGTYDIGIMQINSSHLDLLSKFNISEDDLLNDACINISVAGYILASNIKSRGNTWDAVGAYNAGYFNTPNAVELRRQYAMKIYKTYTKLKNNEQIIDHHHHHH

[2] = target: T1, EtgA residues 18–152 with C-terminal …; test: differential scanning fluorimetry

B1: EscI peptide comprising EscI residues 66–87 (peptide)
peptide: TAGVSSPEQVLIEEIKKRHLAT
[1]
  Kd: 385 ± 35 µM
[2]
  increase in Tm of EtgA (250 and 500 μM peptide): 2 °C
